Results taken from patent US20230303681A1 (published 2023).
Where “and” joins values, the source holds several entries; their conditions need not be identical. Equal values may be shown once.

B1: anti-TMEM106B antibody TM-31 (antibody, V domains shown)
VH: QVQLQQSGAELAKPGASVKVSCKASGYTFISYWMNWVKQRPGQGLEWIGYINPTSGYTRYNQKFKDKATLTADKSSSTAYMQLSSLTYEDSAVYYCARSPPTVVLIGYFDYWGQGTTLTVSS
VL: DIKMTQSPSSMYASLGERVTFTCKASQDINSYLSWFQQKPGKSPKTLIYRGNGLVDGVPSRFSGSGSGQDYSLTISSLEYEDMGIYYCLQYDEFPFTFASGTKLEIK
notes: mouse IgG from hybridoma
B2: anti-TMEM106B antibody TM-8 (antibody, V domains shown)
VH: QIQLVQSGPELKKPGETVKISCKASGYTFTDYPMHWVKQAPGKGFKWMGVIYTDTGEPKYAEVFKGRFAFSLETSASTAYLQINNLKNEDTATYFCVRRLAYWGQGTLVTVSA
VL: DIKMTQSPSSMYASLGERVTITCKASQDINSYLSWFQQKPGKSPKTLIFRANRLVDGVPSRFSGSGSGQDYSLTISSLEYEDMGIYYCLQYDEFPLTFGAGTKLEMK
notes: mouse IgG from hybridoma
B3: anti-TMEM106B antibody TM-6 (antibody, V domains shown)
VH: QVQLQQSGAELVKPGASVKLSCKASGYTFTEYTIHWVKQRSGQGLEWIGWFYPGSTYIDYNEKFKDKATLTADKSSSTVYLELSRLTSEDSAVYFCARHEEDYSNWFPFWGQGTLVTVSA
VL: DIQMSQSSSYLSVSLGGRVTITCKASDHINNWLAWYQQKPGNAPRLLISGATSLETGVPSRFSGSGSGKDYTLSITSLQTEDVATYYCQQYWSSPYTFGGGTKLEIK
notes: mouse IgG from hybridoma
B4: anti-TMEM106B antibody TM-33 (antibody, V domains shown)
VH: EFQLQQSGPELVKPGASVKISCKASGYSFTDYNMNWVKQSNGKSLEWIGVINPNYGTTSYNQKFKGKATLTVDQSSSTAYMQLNSLTSEDSAVYYCASSYWGQGTLVTVSA
VL: DIVMTQSQKFMSTTVGDRVSITCKASQNVGTAVAWYQQKPGQSPKLLIYSASNRYTGVPDRFTGSGSGTDFTLTISNMQSEDLADYFCQQYSSYPYTFGGGTKLEIK
notes: mouse IgG from hybridoma
B5: anti-TMEM106B antibody TM-48 (antibody, V domains shown)
VH: QVQLQQSGPELVKPGASVKLSCKASGYTFTSYDINWVKQRPGQGLEWIGWIYPRDGNTQYIEKLKGKATLTVDTSSSTAYMELHSLTSEDSAVYFCARWIFYAMDYWGQGTSVTVSS
VL: DVLMTQTPLSLPVSLGNQASISCRSSQSIVHGNGNTYLEWYLQKPGQSPKLLIYKVSNRFSGVPDRFSGSGSGTDFTLKISRVEAEDLGVYYCFQGSHLPYTFGGGTKLEIK
B6: anti-TMEM106B antibody TM-49 (antibody, V domains shown)
VH: QVQLQQPGAELVRPGSSVKLSCKASGYTFTRFWMHWVKQRPIQGLEWIGNIDPSDSQTHYNQKFKDKATLTVDKSSSTAYMQLSSLTSEDSAVYYCARLITVDYAMDYWGQGTSVTVSS
VL: QIVLTQSPAIMSASPGEKVTISCSASSSVSYMYWYQQKPGSSPKPWIHRTSNLASGVPVRFSGSGSGTSYSLTISSMEAEDAATYYCQQYHSYPPTFGAGTKLELK
notes: mouse IgG from hybridoma
B7: anti-TMEM106B antibody TM-15 (antibody, V domains shown)
VH: QVQLQQPGAEFVRPGASVKLSCKASGYTFTNYWITWVKQRPGHGLEWIGDIYPGSGNSNYNESFKRKATLTVDTSSSTAYMHLSSQTSEDSAVYFCARKAYGGFPYWGQGTLVTVSA
VL: DIQMTQSPASLSVSVGETVTITCRVSENIYNNLAWYQQKQEKSPQLLVFAATNLADGVPSRFSGSGSGTQFSLKINSLQSEDFGTYYCQHFWDTPFTFGSGTKLEIK
notes: mouse IgG from hybridoma
B8: anti-TMEM106B antibody TM-14 (antibody, V domains shown)
VH: QVQLQQSGPELVRPGTSVKVSCKASGYAFTNYLIEWVKQRPGQGLEWIGVINPGGGNTDYSEKFKDKATLTADKSSNTAYIQLSSLTSEDSAVYFCARSPYSSYVGYAVDYWGQGTSVTVSS
VL: DIQMTQSPSSLSASLGERVSLTCRASQDIGSNLNWLQQEPDGTIKRLIYATSSLDSGVPKRFSGSRSGSDYSLTISSLESEDFVVYYCLQYASSPRTFGGGTRLEIK
notes: mouse IgG from hybridoma

Key:
[1] = target: T1, mouse TMEM106B (mouse, UniProt Q80X71 2-275); assay: FACS Neuro2a;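 note: flow cytometry of cells stained with antibody or hybridoma supernatant (purified antibody at 10 µg/ml) for 1 h on ice, propidium iodide–positive dead cells gated out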
T1 construct: on transiently transfected HEK293 cells, or natively expressed on mouse Neuro2a cells; also called moTMEM106B; murine TMEM106B
Method: (§1) All cells were cultured in either T75 or T150 flasks. […] The enzyme was quenched by addition of fresh media, and the cells were then distributed into 96-well plates for FACS analysis.
(§2) FACS analysis was performed as follows. Each cell type was aliquoted in 96-well round bottom plates (2x10^5 cells per well), washed once with FACS buffer (PBS + 2% FBS + 1 mM EDTA), and incubated with 50 µL of hybridoma supernatant or purified antibody (10 µg/ml in FACS buffer) on ice for 1 hour. […] Following this secondary incubation, the cells were again washed 2x with ice-cold FACS buffer and resuspended in a final volume of 50 µL of FACS buffer + 0.25 µl/well propidium iodide (Fisher Scientific # BDB556463). Analysis was performed on a FACSCanto system (BD Biosciences) or iQue (Intellicyt), with sort gates drawn to exclude dead (i.e., propidium iodide positive) cells.
(§3) Data is presented as mean fluorescence intensity (MFI).

[2] = target: T1, mouse TMEM106B; assay: FACS, HEK293 transfectants;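 note: flow cytometry binding of hybridoma supernatants to HEK293 cells transiently expressing human, cyno or mouse TMEM106B, read as anti-mouse-APC median fluorescence, live cells only, 30 min on ice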
[3] = target: T2, cynomolgus (cyno) TMEM106B (cynomolgus, UniProt Q9NUM4 2-274 (human entry)); assay: FACS, HEK293 transfectants;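 note: flow cytometry binding of hybridoma supernatants to HEK293 cells transiently expressing human, cyno or mouse TMEM106B, read as anti-mouse-APC median fluorescence, live cells only, 30 min on ice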
T2 construct: on transiently transfected HEK293 cells

[4] = target: T3, human TMEM106B (human, UniProt Q9NUM4 2-274); assay: FACS, HEK293 transfectants;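 for fold over negative controls: hybridoma supernatants incubated 30 min on ice with human TMEM106B-expressing HEK293 cells, binding read as anti-mouse-APC median fluorescence on live cells, relative to secondary-antibody-only wells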;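 for fold-change over parental HEK293: flow cytometry binding of hybridoma supernatants to HEK293 cells transiently expressing human, cyno or mouse TMEM106B, read as anti-mouse-APC median fluorescence, live cells only, 30 min on ice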
T3 construct: Full-length, on transiently transfected HEK293 cells, or natively expressed on HeLa, U251 and A549 cells; also called huTMEM106B; huTMEM

[5] = target: T3, human TMEM106B; assay: FACS A549, 10 ug/ml
[6] = target: T3, human TMEM106B; assay: FACS A549, 1 ug/ml
[7] = target: T3, human TMEM106B; assay: FACS HEK+huTMEM, 0.1 ug/ml;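 note: flow cytometry binding of purified mouse IgG antibodies to HEK293 cells transiently expressing TMEM106B, read as median fluorescence intensity with propidium iodide positive dead cells gated out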
Method: Purified anti-TMEM106B antibodies were evaluated for their binding affinity to various TMEM106B-expressing cell lines including HEK293 transiently transfected with human/cyno/mouse TMEM106B, as well as HeLa cells and A549 cells. Antibodies tested for this experiment were mouse IgGs purified from hybridoma supernatant. Affinity binding to cells was determined as follows. Briefly, 1x10^5 cells were aliquoted per well in 96-well round bottom plates and incubated with 50 µL of purified anti-TMEM106B antibody at various concentrations (10x dilutions starting at 10 µg/ml) in FACS buffer (PBS + 2% FBS + 1 mM EDTA). […] Sorting was performed on a iQue (Intellicyt), with sort gates drawn to exclude dead (propidium iodide +) cells. Binding data was analyzed using median fluorescent intensity (MFI) and graphed in Prism. Values presented are MFI.

[8] = target: T3, human TMEM106B; assay: FACS HeLa;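 note: flow cytometry of cells incubated with hybridoma supernatant or purified antibody at 10 µg/ml for 1 h on ice, propidium iodide–positive dead cells gated out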
Method: as §1, §2, §3

[9] = target: T4, GST (Pierce) (UniProt P08515 1-218 = GST, limits assumed); assay: ELISA, coated GST;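 note: ELISA on plates coated with GST alone at 1-10 µg/ml, antibodies applied at 100-1000x dilution, bound antibody detected by peroxidase substrate colour after acid stop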
T4 construct: control for the GST part of the fusion protein; also called GST protein; Glutathione-S-transferase
Method: Briefly, 96-well polystyrene plates were coated with 1-10 µg/ml of recombinant GST-TMEM106B-truncated protein or GST (Pierce) in PBS either at 370 Cfor 1-4 hours or overnight at 4 °C. Coated plates were then blocked with 5% BSA for 1-hour, washed 3×150 µL in TBST (Tris-buffered saline + 0.1% Tween20), and then the antibodies were added at various dilutions (100-1000x) in PBS. After 1-hour incubation (room temperature, with shaking), the plates were washed 3x150 µL in TBST. […] After a final set of washes (3×150µL in TBST), 100 µL of peroxidase substrate was added for 1 minute; the reaction was then quenched with 2N sulfuric acid (100 µL).

[10] = target: T3, human TMEM106B; assay: FACS U251;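 note: flow cytometry of cells exposed to antibody (purified at 10 µg/mL, or hybridoma supernatant) for 1 h on ice, with propidium iodide-positive dead cells gated out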
Method: as §1, §2, §3

[11] = target: T3, human TMEM106B; assay: FACS HEK+huTMEM, 10 ug/ml;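 note: purified mouse IgG antibodies at 10 µg/ml bound to HEK293 cells transiently expressing human TMEM106B, measured by flow cytometry as median fluorescence intensity of propidium iodide negative live cells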
[12] = target: T3, human TMEM106B; assay: FACS, HEK293 transfectants; remark: listed apart in the source;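 for fold over negative controls: hybridoma supernatants incubated 30 min on ice with human TMEM106B-expressing HEK293 cells, binding read as anti-mouse-APC median fluorescence on live cells, relative to secondary-antibody-only wells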;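 for fold-change over parental HEK293: flow cytometry binding of hybridoma supernatants to HEK293 cells transiently expressing human, cyno or mouse TMEM106B, read as anti-mouse-APC median fluorescence, live cells only, 30 min on ice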
Method: Initial screening of the anti-TMEM106B hybridomas was performed as follows.
For screening of the hybridoma cell culture supernatants, humanTMEM106B-transfected HEK293 cells were aliquoted in 96-well round bottom plates (2x10^5 cells per well) and incubated with 50 µL of hybridoma cell culture supernatant on ice for 30 minutes. […] Cell sorting was performed on a FACS Canto system (BD Biosciences) or iQue (Intellicyt), with sort gates drawn to exclude dead (i.e., propidium iodide-positive) cells. Median fluorescence intensity (MFI) of anti-mouse-APC MFI on TMEM106B+ HEK293 cells was calculated for each clone, and those displaying a signal of at least 2-fold over background compared to a secondary-antibody only well were taken forward for further analysis and characterization.

[13] = target: T5, GST-fusion human TMEM106B truncated (human); assay: epitope binning, array SPR (Community 3, Bin 5)
T5 construct: also called GST-TMEM106B-truncated protein; GST-TMEM106B (truncated)
Method: Epitope binning of the anti-TMEM106B antibodies was performed by Carterra (Salt Lake City, Nevada, USA) using a pre-mix epitope binning approach.

[14] = target: T3, human TMEM106B; assay: FACS HEK+huTMEM, 0.01 ug/ml
[15] = target: T3, human TMEM106B; assay: FACS HEK+huTMEM, 1.0 ug/ml
[16] = target: T3, human TMEM106B; assay: FACS A549
[17] = target: T4, GST (Pierce); assay: array SPR, Ab immobilised
[18] = target: T5, GST-fusion human TMEM106B truncated; assay: array SPR, Ab immobilised;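 note: antibodies amine-coupled on an MX-96 chip, antigen flowed at 500 nM top concentration in 5-fold serial dilutions, GST alone run as nonspecific-binding control, duplicate measurements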
Method: Binding kinetic characterization of the purified antibodies was performed by Carterra using a proprietary array SPR instrument (MX-96) as follows. Briefly, antibodies were prepared by diluting to 5 µg/ml in 10 mM Acetate, pH 4.5 (Carterra), at 150 µL/well and then made an additional dilution at 1:10 from there by titrating 11 µl into 100 µL. […] The chip was activated with 18 mM EDC (Sigma Bioxtra) and 4.5 mM S-NHS (Thermo Fisher) diluted in 100 mM MES, pH 5.5, for 7 minutes, and then antibodies were coupled for 10 minutes at 45 µL/minute. After coupling, the chip was returned to the MX-96 and quenched for 7 minutes using 1 M Ethanolamine pH 8.5 (Carterra).
Printed antibodies were profiled for their ability to bind GST-TMEM106B (truncated) protein (described above). Briefly, GST-TMEM106B (truncated) antigen was diluted to 18 µg/ml (500 nM of 36 kDa fusion protein) by mixing 2.7 µL of 2.0 mg/ml antigen into 298 µL Running buffer (HBS-EP+, Teknova with 1 mg/ml BSA, Sigma), and titrated 50 µl into 200 µl for 5-fold serial dilutions. In addition, binding to GST (Pierce) was assayed under the same conditions to determine the extent of any nonspecific binding of the anti-TMEM106B antibodies to GST portion of the TMEM106B-GST fusion protein. Duplicate measurements for each anti-TMEM106B antibody were taken to ensure reproducibility.

Row | Binder | MFI [1] | fold-change over parental HEK293 [2] | fold-change over parental HEK293 [3] | fold-change over parental HEK293 [4] | MFI [5] | MFI [6] | MFI [7] | MFI [8] | binding result [9] | MFI [10] | MFI [11] | fold over negative controls [12] | binding result [13] | MFI [14] | MFI [15] | MFI [16] | binding result [17] | Kd [18] | koff [18] | kon [18]
1 | B1 | 325 | 68.7 fold | 64.7 fold | 22.1 fold | 527 | 403 | 1390 | 799 | no binding | 352 | 6060 | > 2 fold | no binding (tested: 55 nM antigen) | 596 | 3680 |  |  |  |  | 
2 | B2 | 370 | 1.63 fold | 2.62 fold | 2.1 fold | 492 | 393 | 305 | 568 | no binding | 304 | 465 | > 2 fold | no binding (tested: 55 nM antigen) | 301 | 317 | 554 |  |  |  | 
3 | B3 | 371 | 1.25 fold | 1.25 fold | 4.13 fold | 544 | 418 | 327 | 520 | no binding | 304 | 581 | > 2 fold | no binding (tested: 55 nM antigen) | 294 | 393 | 1100 |  |  |  | 
4 | B4 | 233 | 45.8 fold | 7.74 fold | 10.2 fold | 514 | 366 | 1750 | 148 | no binding | 202 | 12100 | > 2 fold | no binding (tested: 55 nM antigen) | 651 | 5630 | 298 |  |  |  | 
5 | B5 | 292 | 28.5 fold | 16.4 fold | 16.7 fold | 2450 | 1580 | 21600 | 219 |  | 346 | 38200 | > 2 fold |  | 4050 | 39900 | 677 | no binding | 3.1 nM and 3.9 nM | 5.3e-05 s⁻¹ and 5.6e-05 s⁻¹ | 17000 M⁻¹ s⁻¹ and 14000 M⁻¹ s⁻¹
6 | B6 | 291 | 21.3 fold | 13.8 fold | 15.6 fold | 613 | 473 | 3030 | 187 |  | 434 | 16500 | > 2 fold | no binding (tested: 55 nM antigen) | 756 | 15700 | 924 | no binding |  |  | 
7 | B7 | 470 | 46.8 fold | 57.7 fold | 31.4 fold | 1980 | 650 | 2060 | 660 | no binding | 382 | 63100 | > 2 fold | no binding (tested: 55 nM antigen) | 584 | 14300 | 938 |  |  |  | 
8 | B8 | 300 | 1.77 fold | 4.56 fold | 3.96 fold | 438 | 409 | 364 | 307 | no binding | 270 | 1190 | > 2 fold | no binding (tested: 55 nM antigen) | 314 | 680 | 896 |  |  |  | 
